Measurements reported in article PMC11042868.

Key:
[1] = target: HER2 on MDA-MB-453 cells (Homo sapiens) (UniProt P04626); experiment: cell binding, NIR fluorescence; settings: live cells, 5% FBS, 1 h, live adherent cells (1e4/well), 0.01-10 uM 5'-IRD800 aptamer in growth medium with 5% FBS, 37 C (or 4 C), buffer salt and pH not stated
[2] = target: HER2 on SK-BR-3 cells (Homo sapiens) (UniProt P04626); experiment: cell binding, NIR fluorescence; settings: live cells, 5% FBS, 1 h, live adherent cells (1e4/well), 0.01-10 uM 5'-IRD800 aptamer in growth medium with 5% FBS, 37 C (or 4 C), buffer salt and pH not stated

CCGCCCAAACACACGTAAACAGATGAGGAGCCGACACTGGG [HMAP7 (M7)]
Kd [1]: 260 nM
Kd [2]: 350 nM
